Six variants from IntAct's records for PubMed 31515488 can be followed below.

Sequences and labels used below:
B1: Cyclin-H (Homo sapiens), P51946 (parent)
chain: MYHNSSQKRHWTFSSEEQLARLRADANRKFRCKAVANGKVLPNDPVFLEPHEEMTLCKYYEKRLLEFCSVFKPAMPRSVVGTACMYFKRFYLNNSVMEYHPRIIMLTCAFLACKVDEFNVSSPQFVGNLRESPLGQEKALEQILEYELLLIQQLNFHLIVHNPYRPFEGFLIDLKTRYPILENPEILRKTADDFLNRIALTDAYLLYTPSQIALTAILSSASRAGITMESYLSESLMLKENRTCLSQLLDIMKSMRNLVKKYEPPRSEEVAVLKQKLERCHSAELALNVITKKRKGYEDDDYVSKKSKHEEEEWTDDDLVESL
B2: Vesicle transport through interaction with t-SNAREs homolog 1B (Homo sapiens), Q9UEU0 (parent)
chain: MASSAASSEHFEKLHEIFRGLHEDLQGVPERLLGTAGTEEKKKLIRDFDEKQQEANETLAEMEEELRYAPLSFRNPMMSKLRNYRKDLAKLHREVRSTPLTATPGGRGDMKYGIYAVENEHMNRLQSQRAMLLQGTESLNRATQSIERSHRIATETDQIGSEIIEELGEQRDQLERTKSRLVNTSENLSKSRKILRSMSRKVTTNKLLLSIIILLELAILGGLVYYKFFRSH
partner: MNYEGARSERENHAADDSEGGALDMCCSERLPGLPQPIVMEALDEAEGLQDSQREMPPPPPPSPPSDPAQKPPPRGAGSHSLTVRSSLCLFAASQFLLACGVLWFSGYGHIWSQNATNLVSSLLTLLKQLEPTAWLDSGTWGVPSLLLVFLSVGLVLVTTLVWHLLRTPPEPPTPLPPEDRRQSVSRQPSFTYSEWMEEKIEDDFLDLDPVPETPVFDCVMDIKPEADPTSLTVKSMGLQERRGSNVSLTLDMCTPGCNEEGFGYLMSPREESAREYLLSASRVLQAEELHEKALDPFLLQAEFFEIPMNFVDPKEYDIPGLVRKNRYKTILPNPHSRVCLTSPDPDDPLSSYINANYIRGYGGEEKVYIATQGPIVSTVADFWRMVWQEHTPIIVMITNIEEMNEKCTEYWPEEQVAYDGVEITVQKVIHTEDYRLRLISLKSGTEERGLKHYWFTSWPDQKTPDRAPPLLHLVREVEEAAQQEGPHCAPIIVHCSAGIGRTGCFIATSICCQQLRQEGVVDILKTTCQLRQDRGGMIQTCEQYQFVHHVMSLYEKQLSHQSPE
B3: Isoform 1 of Zinc finger protein 18 (Homo sapiens), P17022-1 (parent)
chain: MPVDLGQALGLLPSLAKAEDSQFSESDAALQEELSSPETARQLFRQFRYQVMSGPHETLKQLRKLCFQWLQPEVHTKEQILEILMLEQFLTILPGEIQMWVRKQCPGSGEEAVTLVESLKGDPQRLWQWISIQVLGQDILSEKMESPSCQVGEVEPHLEVVPQELGLENSSSGPGELLSHIVKEESDTEAELALAASQPARLEERLIRDQDLGASLLPAAPQEQWRQLDSTQKEQYWDLMLETYGKMVSGAGISHPKSDLTNSIEFGEELAGIYLHVNEKIPRPTCIGDRQENDKENLNLENHRDQELLHASCQASGEVPSQASLRGFFTEDEPGCFGEGENLPEALQNIQDEGTGEQLSPQERISEKQLGQHLPNPHSGEMSTMWLEEKRETSQKGQPRAPMAQKLPTCRECGKTFYRNSQLIFHQRTHTGETYFQCTICKKAFLRSSDFVKHQRTHTGEKPCKCDYCGKGFSDFSGLRHHEKIHTGEKPYKCPICEKSFIQRSNFNRHQRVHTGEKPYKCSHCGKSFSWSSSLDKHQRSHLGKKPFQ
B4: Zinc finger protein RFP (Homo sapiens), P14373 (parent)
chain: MASGSVAECLQQETTCPVCLQYFAEPMMLDCGHNICCACLARCWGTAETNVSCPQCRETFPQRHMRPNRHLANVTQLVKQLRTERPSGPGGEMGVCEKHREPLKLYCEEDQMPICVVCDRSREHRGHSVLPLEEAVEGFKEQIQNQLDHLKRVKDLKKRRRAQGEQARAELLSLTQMEREKIVWEFEQLYHSLKEHEYRLLARLEELDLAIYNSINGAITQFSCNISHLSSLIAQLEEKQQQPTRELLQDIGDTLSRAERIRIPEPWITPPDLQEKIHIFAQKCLFLTESLKQFTEKMQSDMEKIQELREAQLYSVDVTLDPDTAYPSLILSDNLRQVRYSYLQQDLPDNPERFNLFPCVLGSPCFIAGRHYWEVEVGDKAKWTIGVCEDSVCRKGGVTSAPQNGFWAVSLWYGKEYWALTSPMTALPLRTPLQRVGIFLDYDAGEVSFYNVTERCHTFTFSHATFCGPVRPYFSLSYSGGKSAAPLIICPMSGIDGFSGHVGNHGHSMETSP
B5: Transcription factor 4 (Homo sapiens), P15884 (parent)
chain: MHHQQRMAALGTDKELSDLLDFSAMFSPPVSSGKNGPTSLASGHFTGSNVEDRSSSGSWGNGGHPSPSRNYGDGTPYDHMTSRDLGSHDNLSPPFVNSRIQSKTERGSYSSYGRESNLQGCHQQSLLGGDMDMGNPGTLSPTKPGSQYYQYSSNNPRRRPLHSSAMEVQTKKVRKVPPGLPSSVYAPSASTADYNRDSPGYPSSKPATSTFPSSFFMQDGHHSSDPWSSSSGMNQPGYAGMLGNSSHIPQSSSYCSLHPHERLSYPSHSSADINSSLPPMSTFHRSGTNHYSTSSCTPPANGTDSIMANRGSGAAGSSQTGDALGKALASIYSPDHTNNSFSSNPSTPVGSPPSLSAGTAVWSRNGGQASSSPNYEGPLHSLQSRIEDRLERLDDAIHVLRNHAVGPSTAMPGGHGDMHGIIGPSHNGAMGGLGSGYGTGLLSANRHSLMVGTHREDGVALRGSHSLLPNQVPVPQLPVQSATSPDLNPPQDPYRGMPPGLQGQSVSSGSSEIKSDDEGDENLQDTKSSEDKKLDDDKKDIKSITSNNDDEDLTPEQKAEREKERRMANNARERLRVRDINEAFKELGRMVQLHLKSDKPQTKLLILHQAVAVILSLEQQVRERNLNPKAACLKRREEEKVSSEPPPLSLAGPHPGMGDASNHMGQM

The first assay covers variants of B1. To be noted: with klc3_human KLC3, Q6P597.
Sequence of klc3_human KLC3, Q6P597 (Q6P597 whole entry): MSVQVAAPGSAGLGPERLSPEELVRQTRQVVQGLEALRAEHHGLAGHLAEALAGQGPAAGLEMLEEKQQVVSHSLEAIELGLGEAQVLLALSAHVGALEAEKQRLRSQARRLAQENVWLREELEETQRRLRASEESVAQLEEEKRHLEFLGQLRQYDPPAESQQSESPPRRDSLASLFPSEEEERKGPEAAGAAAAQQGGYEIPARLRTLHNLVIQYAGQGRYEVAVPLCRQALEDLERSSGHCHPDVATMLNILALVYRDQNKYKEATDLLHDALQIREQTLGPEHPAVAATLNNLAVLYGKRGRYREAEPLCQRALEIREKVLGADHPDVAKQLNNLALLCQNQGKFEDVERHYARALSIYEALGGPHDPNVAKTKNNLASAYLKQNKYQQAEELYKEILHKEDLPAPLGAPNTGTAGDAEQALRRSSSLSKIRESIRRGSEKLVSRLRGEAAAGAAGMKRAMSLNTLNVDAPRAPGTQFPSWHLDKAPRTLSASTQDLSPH
In the case of N155T, the “effect of a mutation on the interaction” value was “disrupting interaction strength”.

A further assay covers variants of B1. Particulars: with lipa1_human PPFIA1, Q13136.
Sequence of lipa1_human PPFIA1, Q13136 (Q13136 whole entry): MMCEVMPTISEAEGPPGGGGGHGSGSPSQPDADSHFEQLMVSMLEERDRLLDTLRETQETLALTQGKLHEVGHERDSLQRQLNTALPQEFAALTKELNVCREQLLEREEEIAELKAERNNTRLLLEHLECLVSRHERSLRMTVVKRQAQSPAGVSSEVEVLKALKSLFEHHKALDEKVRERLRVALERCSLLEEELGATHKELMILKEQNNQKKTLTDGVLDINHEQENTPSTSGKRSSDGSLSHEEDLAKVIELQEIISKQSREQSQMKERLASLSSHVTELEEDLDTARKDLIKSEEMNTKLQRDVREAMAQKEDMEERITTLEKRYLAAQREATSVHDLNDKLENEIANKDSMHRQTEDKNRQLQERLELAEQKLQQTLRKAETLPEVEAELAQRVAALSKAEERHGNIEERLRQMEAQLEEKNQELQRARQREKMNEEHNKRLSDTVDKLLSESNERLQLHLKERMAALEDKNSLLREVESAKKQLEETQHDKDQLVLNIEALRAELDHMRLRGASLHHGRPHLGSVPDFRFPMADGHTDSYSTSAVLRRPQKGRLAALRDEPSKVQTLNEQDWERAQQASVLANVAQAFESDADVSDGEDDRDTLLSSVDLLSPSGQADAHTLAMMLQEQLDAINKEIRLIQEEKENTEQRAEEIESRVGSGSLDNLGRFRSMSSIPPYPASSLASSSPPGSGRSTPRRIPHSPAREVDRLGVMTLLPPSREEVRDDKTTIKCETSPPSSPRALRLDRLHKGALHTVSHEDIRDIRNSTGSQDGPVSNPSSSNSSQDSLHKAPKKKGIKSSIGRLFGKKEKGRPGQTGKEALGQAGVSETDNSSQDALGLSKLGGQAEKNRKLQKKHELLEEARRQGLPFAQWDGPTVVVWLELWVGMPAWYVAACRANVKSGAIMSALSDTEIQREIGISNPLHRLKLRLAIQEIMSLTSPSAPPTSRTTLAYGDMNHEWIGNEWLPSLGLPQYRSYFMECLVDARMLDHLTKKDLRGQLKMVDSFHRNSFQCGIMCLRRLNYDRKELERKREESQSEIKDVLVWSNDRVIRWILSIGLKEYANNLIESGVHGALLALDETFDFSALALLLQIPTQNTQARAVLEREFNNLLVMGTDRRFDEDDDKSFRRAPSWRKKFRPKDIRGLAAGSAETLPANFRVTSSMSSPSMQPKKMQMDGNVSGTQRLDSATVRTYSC
On to N155T, for which the “effect of a mutation on the interaction” value is “disrupting interaction strength”.

In a further assay the parent is B1. Particulars: with dus12_human DUSP12, Q9UNI6.
Sequence of dus12_human DUSP12, Q9UNI6 (Q9UNI6 whole entry): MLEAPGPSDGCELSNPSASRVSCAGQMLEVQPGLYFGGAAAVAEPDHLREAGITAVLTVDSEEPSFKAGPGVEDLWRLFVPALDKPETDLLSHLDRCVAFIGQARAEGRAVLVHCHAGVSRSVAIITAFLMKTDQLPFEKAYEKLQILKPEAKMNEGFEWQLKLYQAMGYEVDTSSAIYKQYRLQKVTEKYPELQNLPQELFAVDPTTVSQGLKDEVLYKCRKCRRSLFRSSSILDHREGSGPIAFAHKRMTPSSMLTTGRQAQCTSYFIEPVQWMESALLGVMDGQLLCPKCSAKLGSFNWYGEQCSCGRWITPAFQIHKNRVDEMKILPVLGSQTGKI
Turning to N155T, the “effect of a mutation on the interaction” value was “disrupting interaction strength”.

Variants of B2 are the subject of the next assay. Particulars: with ptn5_human PTPN5, P54829.
R124Q: the “effect of a mutation on the interaction” value was “with no effect”.

For the variant R176H, the “effect of a mutation on the interaction” value is “with no effect”.

The variants in a further assay derive from B3. To be noted: with ttc32_human TTC32, Q5I0X7.
Sequence of ttc32_human TTC32, Q5I0X7 (Q5I0X7 whole entry): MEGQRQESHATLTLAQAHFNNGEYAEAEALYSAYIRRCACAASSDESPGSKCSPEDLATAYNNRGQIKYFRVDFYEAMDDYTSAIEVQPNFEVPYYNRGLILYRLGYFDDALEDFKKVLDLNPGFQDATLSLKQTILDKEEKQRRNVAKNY
In the case of L387F, the “effect of a mutation on the interaction” value was “with no effect”.

A further assay covers variants of B3. Particulars: with ccnc_human CCNC.
Regarding L387F, the “effect of a mutation on the interaction” value is listed as “with no effect”.

In the next assay the parent is B4. Particulars: with if4e_human EIF4E.
With N355S, the “effect of a mutation on the interaction” value is “with no effect”.

Another assay covers variants of B4. To be noted: with fhl3_human FHL3, Q13643.
Sequence of fhl3_human FHL3, Q13643 (Q13643 whole entry): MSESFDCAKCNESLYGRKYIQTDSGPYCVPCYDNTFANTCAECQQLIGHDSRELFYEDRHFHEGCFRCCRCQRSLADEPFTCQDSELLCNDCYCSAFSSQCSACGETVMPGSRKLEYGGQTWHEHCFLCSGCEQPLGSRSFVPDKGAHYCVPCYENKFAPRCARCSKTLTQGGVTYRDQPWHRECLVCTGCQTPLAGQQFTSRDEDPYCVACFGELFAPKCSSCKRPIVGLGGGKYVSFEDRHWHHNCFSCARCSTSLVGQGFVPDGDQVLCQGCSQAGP
Take N355S: the “effect of a mutation on the interaction” value is “disrupting interaction strength”.

The variants in a further assay derive from B4. Particulars: with bmp7_human BMP7, P18075.
Sequence of bmp7_human BMP7, P18075 (P18075 whole entry): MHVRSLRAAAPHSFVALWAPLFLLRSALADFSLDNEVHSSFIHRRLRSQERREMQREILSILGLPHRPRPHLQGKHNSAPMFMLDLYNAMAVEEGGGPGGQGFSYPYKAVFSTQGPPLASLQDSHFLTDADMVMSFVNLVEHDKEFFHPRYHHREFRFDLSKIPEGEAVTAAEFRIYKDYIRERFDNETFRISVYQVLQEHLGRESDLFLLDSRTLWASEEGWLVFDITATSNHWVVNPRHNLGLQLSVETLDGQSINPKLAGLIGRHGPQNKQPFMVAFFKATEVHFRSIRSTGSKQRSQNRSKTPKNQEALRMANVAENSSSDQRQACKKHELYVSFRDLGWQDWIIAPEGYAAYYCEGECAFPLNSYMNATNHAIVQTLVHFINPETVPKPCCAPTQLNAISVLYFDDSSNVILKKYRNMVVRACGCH
For the variant N355S, the “effect of a mutation on the interaction” value is listed as “with no effect”.

A further assay covers variants of B4. To be noted: with ercc3_human ERCC3, P19447.
Sequence of ercc3_human ERCC3, P19447 (P19447 whole entry): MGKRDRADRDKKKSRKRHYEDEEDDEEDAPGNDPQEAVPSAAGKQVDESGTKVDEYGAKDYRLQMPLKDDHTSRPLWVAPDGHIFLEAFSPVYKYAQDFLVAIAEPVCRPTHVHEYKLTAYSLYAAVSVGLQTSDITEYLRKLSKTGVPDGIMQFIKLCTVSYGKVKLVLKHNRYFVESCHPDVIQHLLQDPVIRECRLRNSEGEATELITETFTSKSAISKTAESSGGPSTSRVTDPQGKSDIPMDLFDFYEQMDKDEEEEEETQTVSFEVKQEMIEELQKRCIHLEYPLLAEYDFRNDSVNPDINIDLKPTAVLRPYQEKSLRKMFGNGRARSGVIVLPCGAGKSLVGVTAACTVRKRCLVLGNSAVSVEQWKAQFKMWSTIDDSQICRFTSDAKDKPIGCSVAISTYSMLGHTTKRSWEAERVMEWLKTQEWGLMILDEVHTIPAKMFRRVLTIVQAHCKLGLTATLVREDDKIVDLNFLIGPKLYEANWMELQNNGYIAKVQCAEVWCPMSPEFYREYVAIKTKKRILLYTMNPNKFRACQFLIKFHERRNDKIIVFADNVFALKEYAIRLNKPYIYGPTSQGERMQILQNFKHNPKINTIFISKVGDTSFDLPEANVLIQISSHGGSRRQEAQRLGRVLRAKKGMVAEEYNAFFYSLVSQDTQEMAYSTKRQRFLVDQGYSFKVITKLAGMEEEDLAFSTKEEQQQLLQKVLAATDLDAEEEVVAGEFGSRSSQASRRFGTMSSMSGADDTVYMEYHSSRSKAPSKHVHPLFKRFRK
Take N355S: the “effect of a mutation on the interaction” value is “with no effect”.

In the next assay the parent is B5. To be noted: with defi6_human DEF6, Q9H4E7.
Sequence of defi6_human DEF6, Q9H4E7 (Q9H4E7 whole entry): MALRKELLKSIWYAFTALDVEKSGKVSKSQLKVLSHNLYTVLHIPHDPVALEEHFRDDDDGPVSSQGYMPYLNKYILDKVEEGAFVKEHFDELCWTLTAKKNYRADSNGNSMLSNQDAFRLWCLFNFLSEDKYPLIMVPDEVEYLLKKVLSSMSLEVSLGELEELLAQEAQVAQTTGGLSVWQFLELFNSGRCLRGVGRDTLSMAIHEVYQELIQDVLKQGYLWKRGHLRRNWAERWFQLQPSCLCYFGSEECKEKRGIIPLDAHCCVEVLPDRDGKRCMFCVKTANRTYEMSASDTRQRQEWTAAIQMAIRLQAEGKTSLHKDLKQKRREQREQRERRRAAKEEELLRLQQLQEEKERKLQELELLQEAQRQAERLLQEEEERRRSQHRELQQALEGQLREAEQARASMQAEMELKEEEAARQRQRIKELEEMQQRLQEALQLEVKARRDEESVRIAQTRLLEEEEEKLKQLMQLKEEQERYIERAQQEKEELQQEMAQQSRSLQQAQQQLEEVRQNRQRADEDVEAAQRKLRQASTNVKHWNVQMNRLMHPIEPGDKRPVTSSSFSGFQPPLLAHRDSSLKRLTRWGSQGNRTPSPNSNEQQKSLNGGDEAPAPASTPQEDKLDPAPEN
Take N90S: the “effect of a mutation on the interaction” value is given as “with no effect”.
